From patent US20140186348A1 (NOVELMED THERAPEUTICS, published 2014)
Positions count from the first letter of the chain named.

How the values were obtained:
human properdin [1] = molecular target: T1, human properdin (human, UniProt P27918 28-469); experiment: properdin ELISA (FIG. 27)
T1 construct: also called antigen properdin

human properdin [2] = molecular target: T1, human properdin; experiment: competition ELISA: varied antibody with 50 nM properdin on C3b-coated wells
human properdin [3] = molecular target: T1, human properdin; experiment: cell-based or functional assay
human properdin [4] = molecular target: T1, human properdin; experiment: properdin ELISA

T1 sequence (P27918 28-469 limits assumed): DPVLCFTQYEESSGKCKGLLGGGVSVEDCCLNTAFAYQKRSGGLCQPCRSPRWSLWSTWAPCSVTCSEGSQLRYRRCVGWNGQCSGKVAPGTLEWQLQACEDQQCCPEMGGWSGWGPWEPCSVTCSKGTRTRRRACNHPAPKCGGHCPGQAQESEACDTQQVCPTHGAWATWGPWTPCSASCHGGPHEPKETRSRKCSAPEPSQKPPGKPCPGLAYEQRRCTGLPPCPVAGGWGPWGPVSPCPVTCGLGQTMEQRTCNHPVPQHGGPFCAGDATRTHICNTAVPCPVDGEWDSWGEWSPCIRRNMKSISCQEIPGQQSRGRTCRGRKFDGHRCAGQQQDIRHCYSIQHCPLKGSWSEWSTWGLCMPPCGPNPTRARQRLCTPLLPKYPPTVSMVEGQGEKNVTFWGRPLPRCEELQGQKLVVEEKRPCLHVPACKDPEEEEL

B1: BAP010hum03 (humanized anti-properdin monoclonal antibody) (antibody, V domains shown)
VH: EVQLVQSGAEVKKPGESLRISCKGSGYIFTNYPIHWIRQSPSRGLEWLGFIDPGGGYDEPDERFRDRVTISADKSISTAYLQWSSLKASDTAMYYCARRGGGYYLDYWGQG
VL: DIQMTQSPSSLSASVGDRVTITCRASQDISFFLNWYQQKPGKAPKLLIYYTSRYHSGVPSRFSGSGSGTEFTLTISSLQSEDFAVYYCQHGNTLPWTFGQG
notes: Labelled _HC and _LC; Expressed as human IgG; also called BAP010hum03_HC
B1: binds (human properdin [1]).

B2: BAP010hum10 (humanized anti-properdin monoclonal antibody) (antibody, V domains shown)
VH: QVQLQESGPGLVKPSQTLSLTCTVSGYIFTNYPIHWVRQATGQGLEWMGFIDPGGGYDEPDERFRDRVTITADKSTSTAYMELSSLRSEDTAVYYCARRGGGYYLDYWGQG
VL: B1 VL with V58I, S60P, S67Y, L73F, Q79E, S80A, F83A, V85T
notes: Labelled _HC and _LC; Expressed as human IgG; also called BAP010hum10_HC
B2: binds (human properdin [1]).

B3: NM9401-F(ab′)2 (other)
VH: QVQLQQSAPELARPGASVKMSCTASGYIFTNYPIHWVKQRPGQGLEWIGFIDPGGGYDEPDERFRDRATLTADKSSSTAYMQLSSLTSEDSAIYYCARRGGGYYLDYWGQGTTLTVSSAKTT
VL: DIQMTQTTSSLSASLGDRVTISCRASQDISFFLNWYQQKPDGTVKLLIYYTSRYHSGVPSRFSGSGSGTDFSLTINNLEQEDFATYFCQHGNTLPWTFGGGTKLEIKRADAAPTVSIFPPSSEQLTSGGASVVCFLNN
notes: F(ab′)2 fragment of the murine NM9401 IgG
In the case of B3, the “concentration inhibiting properdin binding to C3b (quantity not named, IC50 implied)” value (human properdin [2]) is reported as 29 nM and the “molar ratio of antibody to properdin” value (human properdin [2]) is reported as 0.5.

B4: BAP010hum02 (humanized anti-properdin monoclonal antibody) (antibody, V domains shown)
VH: QVQLQESGPGLVKPSQTLSLTCTVSGYIFTNYPIHWVRQAPGKGLEWVSFIDPGGGYDEPDERFRDRVTISVDTSKNQFSLKLSSVTAADTAVYYCARRGGGYYLDYWGQG
VL: EIVLTQSPATLSLSPGERATLSCRASQDISFFLNWFQQRPGQSPRRLIYYTSRYHSGIPPRFSGSGYGTDFTLTINNIESEDAAYYFCQHGNTLPWTFGQG
notes: Labelled _HC and _LC; Expressed as human IgG from BioAtla's mammalian vector; also called BAP010hum02_HC
B4: binds (human properdin [1]).

B5: NM9401-IgG (murine anti-properdin monoclonal antibody, IgG1) (antibody, V domains shown)
VH: QVQLQQSAPELARPGASVKMSCTASGYIFTNYPIHWVKQRPGQGLEWIGFIDPGGGYDEPDERFRDRATLTADKSSSTAYMQLSSLTSEDSAIYYCARRGGGYYLDYWGQGTTLTVSS
VL: DIQMTQTTSSLSASLGDRVTISCRASQDISFFLNWYQQKPDGTVKLLIYYTSRYHSGVPSRFSGSGSGTDFSLTINNLEQEDFATYFCQHGNTLPWTFGGGTKLEIKR
B5 was tested, and the “erythrocyte lysis assay using rabbit erythrocytes, IC50” value (human properdin [3]) was 20 to 30 nM.

B6: NM9401-Fab (Fab, V domains shown)
VH: B5 VH
VL: B5 VL
notes: Fab fragment of the murine NM9401 IgG
For B6, the “concentration inhibiting properdin binding to C3b (quantity not named, IC50 implied)” value (human properdin [2]) was 72 nM and the “molar ratio of antibody to properdin” value (human properdin [2]) was 1.2.

B7: BAP010-1 (chimeric anti-properdin IgG1) (antibody, V domains shown)
VH: B5 VH
VL: DIQMTQTTSSLSASLGDRVTISCRASQDISFFLNWYQQKPDGTVKLLIYYTSRYHSGVPSRFSGSGSGTDFSLTINNLEQEDFATYFCQHGNTLPWTFGGGTKLEIK
notes: Murine variable domains (heavy chain clone mH6-3g, light chain clone mK10) fused in frame to a human IgG1 constant region and a human kappa constant region; also called chimeric anti-properdin monoclonal antibody; recombinant antibody BAP010-1
With B7 the Kd (human properdin [4]) was about 0.054 nM and the “erythrocyte lysis assay using rabbit erythrocytes, IC50” value (human properdin [3]) was 20 to 30 nM.
